The text below walks through data of patent EP4714976A1 (Sunshine Lake Pharma Co., Ltd., dated 2026).

Substitutions are numbered along the chain they refer to.

B1: 3G10 scFv-Fc (Fc fusion)
chain: EVQLQQSGPELVKPGASVKMSCKASGYTFATYNMHWVKQTTGQGLEWIGAIYPDNGDTFYNRKFKDKATLTADKSSTTAYMQLSSLTSEDSAVYYCARGDFAYWGQGTLVTVSAGGGGSGGGGSGGGGSDVLMTQSPASLSASVGETVTITCGASENIYGALNWYQRKQGKSPQLLIYGATNLADGMSSRFSGSGSGRQYSLKISSLHPDDVATYYCQNVLSTPYTFGGGTKLEMKESKYGPPCPPCPAPEAAGGPSVFLFPPKPKDTLMISRTPEVTCVVVDVSQEDPEVQFNWYVDGVEVHNAKTKPREEQFNSTYRVVSVLTVLHQDWLNGKEYKCKVSNKGLPSSIEKTISKAKGQPREPQVYTLPPSQEEMTKNQVSLTCLVKGFYPSDIAVEWESNGQPENNYKTTPPVLDSDGSFFLYSKLTVDKSRWQEGNVFSCSVMHEALHNHYTQKSLSLSLG
notes: scFv-Fc dimer
B2: 3F11 scFv displayed on phage (scFv)
scFv: QVQLQQSGAELVKPGASVKMSCKASGYTFAPYNIHWVRQTPGQGLEWIGLIYPDNGDTSYNQKFKAKATLTADKSSSTAYMQLSSLTSEDSAVYYCARGGFDYWGQGTSLTVSSGGGGSGGGGSGGGGSDIVMTQSQKFMSTSVGDRVSVTCKASQNVGTNVAWYQQKPGQSPKALIYSASYRYSGVPDRFTGSGSGTDFTLTISNVQSEDLAEYFCQQHYSTPFTFGSGTKLEIK
B3: 3C7 scFv displayed on phage (scFv)
scFv: EIQLQQSGAELVKPGASVKMSCKASGYIFRNYYIHWVKRTPGQGLEWIGAIYPDNGDTSYNQRFKVKATLTADTSSSTAYMQLSSLTSEDSAVYYCARAFTYWGQGTTLTVSSGGGGSGGGGSGGGGSDIQMIQSPASLSASVGETVTITCGASENIYGALNWYQRKQGKSPQLLIYGATNLADGMSSRFSGSGSGRQYSLKISSLHPDDVATYYCQNVLSTPYTFGGGTKLEIK
B4: 1D7 scFv displayed on phage (scFv)
scFv: QIQLQQSGAELVKPGASVKMSCKASGYTFRYYNMHWVKRTPGQGLEWIGLIYPDNGDTSYNQKFKGKATLTADTSSSTAYMQLSSLTSEDSAVYYCARGGLDYWGQGTSLTVSSGGGGSGGGGSGGGGSDIQMTQSPSSMSASLGDRITITCQATQDIVKNLNWYQQKPGKPPSFLIYYATELAEGVPSRFSGSGSGSDYSLTISNLESEDFADYYCLQFYEFPLTFGAGTKLELK
B5: 1G6 scFv displayed on phage (scFv)
scFv: EIQLQQSGAELVKPGASVKMSCKASGYTFRYYNMHWVKRTPGQGLEWIGLIYPDNGDTSYNQKFKGKATLTADTSSSTAYMQLSSLTSEDSAVYYCARGGLDYWGQGTSLTVSSGGGGSGGGGSGGGGSNIVMTQSHKFMSTSVGDRVSITCKASQDVNTDVAWYQQKPGQSPKLLIYSASYRYTGVPTRFTGSGSGTDFTFTISGVQAEDLADYYCQQHYNTPYTFGGGTKLELK
B6: 3G10 scFv displayed on phage (scFv)
scFv: EVQLQQSGPELVKPGASVKMSCKASGYTFATYNMHWVKQTTGQGLEWIGAIYPDNGDTFYNRKFKDKATLTADKSSTTAYMQLSSLTSEDSAVYYCARGDFAYWGQGTLVTVSAGGGGSGGGGSGGGGSDVLMTQSPASLSASVGETVTITCGASENIYGALNWYQRKQGKSPQLLIYGATNLADGMSSRFSGSGSGRQYSLKISSLHPDDVATYYCQNVLSTPYTFGGGTKLEMK
B7: 2B2 scFv displayed on phage (scFv)
scFv: QLQLQQSGAELVKPGASVKMSCKASGYTFASYNLHWVKQTPGQGLEWIGLIYPENGDTSYNQKFKDKATLTADKSSTTAYIQLSSLASEDSAVYFCARGGFDYWGQGTTLTVSSGGGGSGGGGSGGGGSDIVMTQSQKFMSTSVGDRVSVTCKASQNVGTNVAWYQQKPGQSPKALIYSASYRYSGVPDRFTGSGSGTDYTLTISSVQAEDLALYYCQQHYSTPYTFGGGTKLELK
B8: 3E1 scFv displayed on phage (scFv)
scFv: QVQLQQPGAEVVKPGASVKMSCKASGYTFTDYYIHWVKQTPGQGLEWIGAIYPDNGDTSYNQKFKVKATLTADKSSSTAYMQLSSLTSEDSAVYYCARAFTYWGQGTLVTVSAGGGGSGGGGSGGGGSDILITQSPASLSASVGETVTITCGASENIYGALNWYQRKQGKSPQLLIYGATNLADGMSSRFSGSGSGRQYSLKISSLHPDDVATYYCQNVLSTPYTFGGGTKLEIK
B9: 3B7 scFv displayed on phage (scFv)
scFv: EVQLQQSGAELVKPGASVKMSCKASGYTFRYYNMHWVKRTPGQGLEWIGLIYPDNGDTSYNQKFKGKATLTADTSSSTAYMQLSSLTSEDSAVYYCARGGFDYWGQGTTLTVSSGGGGSGGGGSGGGGSDIQMTQSPASLSASVGETVTITCGASENIYGALNWYQRKQGKSPQLLIYGATNLADGMSSRFSGSGSGRQYSLKISSLHPDDVATYYCQNVLSTPYTFGGGTKLELK
B10: 3B4 scFv displayed on phage (scFv)
scFv: B9 scFv with E10D, R30S, K38R, F101L, T134I, L140M, L235M
B11: 3F5 scFv displayed on phage (scFv)
scFv: B9 scFv with V2I, F101L, Q132V, M133L, L235I
B12: 3F10 scFv displayed on phage (scFv)
scFv: B9 scFv with R30S, Y31F, M34I, K38R, R39Q, G66A, T74K, I131V, Q132L, L235I
B13: 3C9 scFv displayed on phage (scFv)
scFv: B9 scFv with V2I, T28I, F101L, T134I, L235I
B14: 3E3 scFv displayed on phage (scFv)
scFv: QVQLQQPGAVLVKPGASVRMSCKASGYTFPYYNVHWVKRTPGQGLEWIGLIYPDNGDTSYNQKFTGKATLTADTSSSTAYMQLSSLTSEDSAVYYCARGGLDYWGQGTTLTVSAGGGGSGGGGSGGGGSDVQITQSPASLSASVGETVTITCGASENIYGALNWYQRKQGKSPQLLIYGATNLADGMSSRFSGSGSGRQYSLKISSLHPDDVATYYCQNVLSTPYTFGGGTKLEIK
B15: 3A3 scFv displayed on phage (scFv)
scFv: QVQLQQSGAELVKPGASVKMSCKASGYTFTTYNIHWVRQTPGQGLEWIGLIYPDNGDTSYNQKFKAKATLTADKSSSTAYMHLSSLTSEDSAVYYCARGGFDYWGQGTTLTVSSGGGGSGGGGSGGGGSDIVMTQSHKFMSTSVGDRVSITCKASQDVNTDVSWYQQKPGQSPKLLIYSASYRYTGVPTRFTGSGSGTDFTFTISGVQAEDLADYYCQQHYNTPYTFGGGTRLEIK
B16: 3E2 scFv displayed on phage (scFv)
scFv: EIQLQQSGAELVKPGASVKMSCKASGYTFSFYNMHWVKRTPGQGLEWIGLIYPDNGDTSYNQKFKGKATLTADTSSSTAYMQLSSLTSEDSAVYYCARGGLDYWGQGTSLTVSSGGGGSGGGGSGGGGSNIVMTQSQKFMSTSVGDRVSVTCKASQNVGTNVAWYQQKPGQSPKALIYSASYRYTGVPDRFTGSGSGTDFTFTISSVQAEDLAVYYCQQHYSTPYTFGGGTKLEIK
B17: 1B8 scFv displayed on phage (scFv)
scFv: QIQLQQSGAELVKPGASVKMSCKASGYTFASYNLHWVKQTPGQGLEWIGLIYPENGDTSYNQKFKGKATLTADTSSTTAYIQLSSLTSEDSAVYFCARGGFDYWGQGTSLTVSSGGGGSGGGGSGGGGSDIKMTQSPASLSASVGETVTITCGASENIYGALNWYQRKQGKSPQLLIYGATNLADGMSSRFSGSGSGRQYSLKISSLHPDDVATYYCQNVLSTPYTFGGGTKLEIK

T3 sequence (P21802 other isoform, or with tags, fused parts or gaps): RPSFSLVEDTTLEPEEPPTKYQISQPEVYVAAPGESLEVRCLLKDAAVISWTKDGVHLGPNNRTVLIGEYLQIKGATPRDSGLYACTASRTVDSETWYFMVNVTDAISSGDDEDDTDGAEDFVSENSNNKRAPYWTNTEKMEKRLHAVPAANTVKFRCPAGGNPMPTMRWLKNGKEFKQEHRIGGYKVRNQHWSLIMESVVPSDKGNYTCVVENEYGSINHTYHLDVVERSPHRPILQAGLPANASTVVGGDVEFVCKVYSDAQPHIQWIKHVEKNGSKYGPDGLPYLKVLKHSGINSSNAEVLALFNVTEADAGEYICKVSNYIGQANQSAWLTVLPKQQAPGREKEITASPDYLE

The target in the first experiment is T1, FGFR2b on KATO III cells (human, UniProt P21802-3 22-822).
T1 construct: whole, on cells; also called KATO III cells that overexpress FGFR2b
T1 sequence (P21802 other isoform, or with tags, fused parts or gaps): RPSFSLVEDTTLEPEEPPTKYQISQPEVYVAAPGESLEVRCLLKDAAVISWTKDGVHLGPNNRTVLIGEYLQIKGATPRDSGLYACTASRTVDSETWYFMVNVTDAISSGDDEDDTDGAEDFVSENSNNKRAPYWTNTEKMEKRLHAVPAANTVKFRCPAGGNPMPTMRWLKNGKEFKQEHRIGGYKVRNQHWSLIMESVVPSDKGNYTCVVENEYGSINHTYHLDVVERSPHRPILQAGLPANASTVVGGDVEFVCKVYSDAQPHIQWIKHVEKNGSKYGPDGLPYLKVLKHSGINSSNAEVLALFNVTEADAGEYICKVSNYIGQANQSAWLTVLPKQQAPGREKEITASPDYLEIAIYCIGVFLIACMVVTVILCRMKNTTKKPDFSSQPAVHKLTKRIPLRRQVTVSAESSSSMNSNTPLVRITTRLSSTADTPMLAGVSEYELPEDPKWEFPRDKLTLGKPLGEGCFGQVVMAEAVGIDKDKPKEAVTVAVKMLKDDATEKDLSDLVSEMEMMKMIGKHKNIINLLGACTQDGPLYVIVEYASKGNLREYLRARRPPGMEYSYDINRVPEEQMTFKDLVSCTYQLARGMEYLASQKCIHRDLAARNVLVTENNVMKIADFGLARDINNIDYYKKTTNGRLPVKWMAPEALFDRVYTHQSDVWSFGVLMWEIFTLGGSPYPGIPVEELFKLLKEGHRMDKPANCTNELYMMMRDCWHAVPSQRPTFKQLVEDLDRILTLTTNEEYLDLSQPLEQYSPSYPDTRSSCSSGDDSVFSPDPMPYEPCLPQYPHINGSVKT
The experiment is described as follows: flow cytometry, KATO III cells. (In general: A flow cytometer gives signals particle by particle.)
Consider B1, for which the half-maximal effective concentration (EC50) (in general, the concentration that produces a half-maximal response) is 0.149 µg/mL.

In the next experiment the target is T2, FGFR2c (acro) (UniProt P21802 22-377). The experiment is described as follows: ELISA, antibody 10 µg/mL. A general note: In an ELISA, binding on a coated surface is turned into a signal by an enzyme label.
T2 sequence (P21802 22-377): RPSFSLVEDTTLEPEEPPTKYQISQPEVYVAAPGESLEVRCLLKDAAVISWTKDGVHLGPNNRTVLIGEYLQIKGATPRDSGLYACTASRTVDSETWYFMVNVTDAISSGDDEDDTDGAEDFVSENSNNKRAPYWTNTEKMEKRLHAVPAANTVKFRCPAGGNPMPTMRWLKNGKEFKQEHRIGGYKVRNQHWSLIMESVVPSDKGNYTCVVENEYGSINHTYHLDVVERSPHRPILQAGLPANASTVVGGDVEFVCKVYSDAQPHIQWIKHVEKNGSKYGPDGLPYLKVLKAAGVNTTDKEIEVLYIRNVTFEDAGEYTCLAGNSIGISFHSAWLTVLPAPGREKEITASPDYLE
On to B1, for which the “OD (450 nm) value” was 0.096.

A further experiment has as its target T3, human FGFR2b (Kaixia Biotechnology, catalog number FGR-HM1BB) (human, UniProt P21802-3 22-378).
T3 construct: extracellular domain; bought; also called hFGFR2b; human FGFR2b protein
Briefly: BLI, antibody on AHC2 sensor. (In general: BLI is a label-free optical method that tracks binding on a fibre tip over time.)
For B1, the Kd (as a rule, a measure of binding affinity in units of concentration) stood at 6.25 nM; the dissociation rate constant (koff) (usually the first-order rate constant of dissociation) is 0.00199 s⁻¹; the on-rate (kon) – broadly, the second-order rate constant of association – is 318000 M⁻¹ s⁻¹.

The target of another experiment is T4, extracellular domain of FGFR2c protein (Example 1) (UniProt P21802 22-377).
T4 construct: extracellular domain
T4 sequence (P21802 22-377): as above
The experiment is described as follows: phage ELISA.
Consider B2, for which the “OD (450 nm) value” is 0.045.
With B3, the “OD (450 nm) value” was 0.04.
Take B4: the “OD (450 nm) value” was 0.059.
B5: the “OD (450 nm) value” was 0.073.
Turning to B6, the “OD (450 nm) value” came to 0.042.
With B7, the “OD (450 nm) value” is 0.051.
For B8, the “OD (450 nm) value” is 0.056.
For the molecule B9, the “OD (450 nm) value” came out at 0.043.
As to B10, the “OD (450 nm) value” was 0.042.
Turning to B11, the “OD (450 nm) value” came out at 0.038.
On the same count and under the same terms, for B12 the value was 0.039.
Still for that read-out and setting: for B13 the value was 0.033; for B14, 0.033; for B15, 0.05.
In the case of B16, the “OD (450 nm) value” was 0.036.
Turning to B17, the “OD (450 nm) value” is 0.082.

The target of a further experiment is T4, extracellular domain of FGFR2c protein …. The experiment is described as follows: phage ELISA. The source holds these as a separate data set.
On to B2, for which the binding result is “no binding”.
Turning to B3, the binding result is recorded as “no binding”.
For B4, the binding result is “no binding”.
Same read-out and setting: in the case of B5 it was “no binding”; in that of B6, “no binding”.
As to B7, the binding result is reported as “no binding”.
In the case of B8, the binding result is listed as “no binding”.
For B9, the binding result is listed as “no binding”.
With B10, the binding result was “no binding”.
In the case of B11, the binding result is given as “no binding”.
Same read-out and setting: for B12 the value was “no binding”; for B13, “no binding”; for B14, “no binding”.
With B15, the binding result is “no binding”.
As to B16, the binding result is “no binding”.
As to B17, the binding result was “no binding”.

For a further experiment, the target named is T2, FGFR2c (acro). The experiment is described as follows: ELISA.
Consider B1, for which the binding result was “no binding (tested: 10 µg/mL)”.

The target of the next experiment is T3, human FGFR2b (Kaixia Biotechnology, …). Briefly: ELISA, FGFR2b coated at 1 µg/ml.
Consider B1, for which it took 0.0276 µg/mL to reach a half-maximal effect (EC50).

In the next experiment the target is T5, recombinant cynomolgus monkey FGFR2b (cynomolgus monkey).
T5 construct: extracellular domain; bought; also called cynomolgus macaque FGFR2b
Briefly: ELISA, antibody 1ug/mL.
Regarding B1, the “OD (450 nm) value” worked out at 3.12.
